In patent US20230416313A1 (published 2023):
One block for each binder: values may come before it.

Tests used:
[1] = target: T1, recombinant human complement factor H (CFH), isolated from moss (human, UniProt P08603 19-1231); test: SPR; steady state
T1 chain: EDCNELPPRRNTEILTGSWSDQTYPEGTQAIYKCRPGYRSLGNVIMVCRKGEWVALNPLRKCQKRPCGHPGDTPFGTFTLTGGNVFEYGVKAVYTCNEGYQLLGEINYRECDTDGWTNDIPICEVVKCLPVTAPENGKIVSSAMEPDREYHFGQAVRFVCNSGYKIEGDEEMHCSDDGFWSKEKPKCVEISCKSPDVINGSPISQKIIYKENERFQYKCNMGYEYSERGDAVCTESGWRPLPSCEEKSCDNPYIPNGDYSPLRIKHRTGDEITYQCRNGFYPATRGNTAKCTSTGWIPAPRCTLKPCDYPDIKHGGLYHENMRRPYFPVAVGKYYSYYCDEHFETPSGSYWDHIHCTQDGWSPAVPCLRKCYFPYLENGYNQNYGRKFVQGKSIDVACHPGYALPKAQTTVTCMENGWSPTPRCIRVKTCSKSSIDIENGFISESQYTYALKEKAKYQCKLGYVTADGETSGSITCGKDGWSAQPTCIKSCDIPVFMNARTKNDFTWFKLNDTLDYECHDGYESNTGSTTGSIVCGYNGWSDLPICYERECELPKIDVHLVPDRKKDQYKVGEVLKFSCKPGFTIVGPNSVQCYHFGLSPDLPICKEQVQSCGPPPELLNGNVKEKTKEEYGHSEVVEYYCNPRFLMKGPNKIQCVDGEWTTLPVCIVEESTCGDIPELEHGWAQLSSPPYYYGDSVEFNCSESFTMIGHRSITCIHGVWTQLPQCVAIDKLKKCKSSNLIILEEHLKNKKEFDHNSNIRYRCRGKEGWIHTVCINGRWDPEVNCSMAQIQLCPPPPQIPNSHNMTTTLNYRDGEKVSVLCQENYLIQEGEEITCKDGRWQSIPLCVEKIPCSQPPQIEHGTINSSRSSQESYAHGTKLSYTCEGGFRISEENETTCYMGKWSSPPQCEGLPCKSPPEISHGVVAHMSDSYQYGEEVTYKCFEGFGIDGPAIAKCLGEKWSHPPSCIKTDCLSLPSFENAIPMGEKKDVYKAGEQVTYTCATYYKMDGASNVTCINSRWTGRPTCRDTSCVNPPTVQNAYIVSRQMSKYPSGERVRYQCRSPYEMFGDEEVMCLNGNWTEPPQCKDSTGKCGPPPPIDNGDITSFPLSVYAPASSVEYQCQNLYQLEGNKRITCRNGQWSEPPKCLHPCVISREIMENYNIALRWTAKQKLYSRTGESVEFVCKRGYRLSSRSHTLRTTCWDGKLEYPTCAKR

[2] = target: T1, recombinant human complement factor H …; test: BLI; steady state

Kd [1]: 35 nM
B1: 209202 (protein)
chain: NAADLDEAQISAIFEIMDLPNLTWQQQEWFIDSLSDDPSVSKEVLGEAQKLNDSQAPK

Kd [2]: 421 nM
B2: CFH binding protein of SEQ ID NO: 20 (CID 209864) (designed binder)
chain: IAAKFDEAQQAAFYEILHLPNLTELQRNHFIQTLRDDPSVSLWVLGLAQLLNDSQAPKIAAKFDEAQQHAFYTILHLENLTEEQRNAFIQSLRDDPSVSLEVLGEAIKLNISQAPK

Kd [2]: 120 nM
B3: CFH binding protein of SEQ ID NO: 5 (CID 209447) (designed binder)
chain: NAAEADDAQVSAAMEIIMLPNLTLEQAHSFIESLYRDPSVSKEVLGEAQKLNDSQAPK
